Reference: patent US20210363269A1 (ALX ONCOLOGY, published 2021)

Assays:
Assay in all cases: SPR, captured scFv-Fc
[1] = target: T1, human SIRPγ isoform 1 (human, UniProt Q9P1W8 29-147)
T1 construct: also called sirpg; sirp-g
In short: (§1)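 Pre-filtered culture media supplied the scFv-Fc antibody clones, which were captured by anti-human IgG Fc amine-coupled (about 4000 RU) to a GLC chip on a ProteOn XPR36. SIRP analytes were flowed in PBS pH 7.4 with 0.01% Tween-20 at 25° C. Interspot and buffer-blank responses were subtracted from the data, which were then fitted to a 1:1 Langmuir model. Dissociation rate constants (koff) were derived from this fitting.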

[2] = target: T2, human SIRP-α v2 D1 domain (human)
T2 construct: also called human v2; human α v2
In short: as §1

[3] = target: T3, cynomolgus SIRP-α D1 domain (SEQ ID NO:11) (cynomolgus, UniProt Q5TFQ8 30-148 (human entry), limits assumed)
T3 construct: also called cyno1
T3 chain: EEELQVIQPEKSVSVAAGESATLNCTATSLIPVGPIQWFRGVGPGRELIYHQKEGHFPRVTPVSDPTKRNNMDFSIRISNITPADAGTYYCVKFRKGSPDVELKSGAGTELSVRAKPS
In short: as §1

[4] = target: T4, cynomolgus SIRP-α D1 domain (SEQ ID NO:12) (cynomolgus, UniProt Q5TFQ8 30-148 (human entry), limits assumed)
T4 construct: also called cyno2; Cyno2
T4 chain: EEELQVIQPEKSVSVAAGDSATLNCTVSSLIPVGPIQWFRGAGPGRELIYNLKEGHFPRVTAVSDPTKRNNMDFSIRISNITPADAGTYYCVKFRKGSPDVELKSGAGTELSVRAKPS
In short: as §1

[5] = target: T5, mouse 129 SIRP-α D1 domain (mouse (129 strain), UniProt P97797 32-150)
T5 construct: also called m129
T5 chain: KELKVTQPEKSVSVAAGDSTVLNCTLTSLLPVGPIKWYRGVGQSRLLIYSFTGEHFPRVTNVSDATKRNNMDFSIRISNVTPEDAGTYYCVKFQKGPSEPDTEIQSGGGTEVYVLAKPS
In short: as §1

[6] = target: T6, NOD mouse SIRP-α D1 domain (mouse (NOD strain))
T6 chain: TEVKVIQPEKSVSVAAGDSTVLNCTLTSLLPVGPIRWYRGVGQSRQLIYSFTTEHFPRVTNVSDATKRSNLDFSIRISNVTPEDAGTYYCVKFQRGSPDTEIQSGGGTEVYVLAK
In short: as §1

[7] = target: T7, C57BL/6 mouse SIRP-α D1 domain (mouse (C57BL/6 strain), UniProt P97797 32-148)
T7 sequence: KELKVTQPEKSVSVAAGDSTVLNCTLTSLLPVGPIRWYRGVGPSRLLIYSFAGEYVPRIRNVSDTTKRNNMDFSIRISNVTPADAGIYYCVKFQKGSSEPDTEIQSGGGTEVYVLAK
In short: as §1

[8] = target: T8, human SIRPβ isoform 1 (human, UniProt O00241 30-148)
T8 construct: also called sirpb1; Sirpb1
In short: as §1

Measured: binding result

T1 sequence (Q9P1W8 29-147 limits assumed): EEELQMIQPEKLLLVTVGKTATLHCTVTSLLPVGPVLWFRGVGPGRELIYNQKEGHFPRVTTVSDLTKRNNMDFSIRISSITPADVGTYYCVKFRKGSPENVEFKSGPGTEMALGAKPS
T8 sequence (O00241 30-148 limits assumed): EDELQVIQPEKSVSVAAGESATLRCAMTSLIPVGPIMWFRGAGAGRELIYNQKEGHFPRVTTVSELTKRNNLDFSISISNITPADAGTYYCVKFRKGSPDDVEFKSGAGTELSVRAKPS

B1: S138 scFv-Fc (scFv)
scFv: EIVLTQSPGTLSVSPGERVILTCRASQSVDTYNLAWYQQKPGQAPRLLIYDLSTRATGIPDRFSGSGSGTEFTLTINSLEPEDFAVYYCHQYYDWPPYTFGGGTKVEIKGQSSRSSGGGGSSGGGGSDVQLVESGGGVVRPGESLRLSCAASGFTFSNYAMNWVRQAPGEGLEWVSGISGRGGDTYYADSVKGRFTISRDNSKNTLYLQMNSLRAEDTAIYYCAKGTWNYGSFDYWGLGTLVTVSSSLDPKSSDKTDTCPPCPAPELLGGPSVFLFPPKPKDTLMISRTPEVTCVVVDVSHEDPEVKFNWYVDGV
notes: scFv-Fc; Human framework
no binding (tested: 100 nM): all assays above
